Results taken from US20140087995A1 (published 2014).
Numbered stars: 1 amine (or outer) side, 2 acyl side, 3 side chain; on linkers, the order of the positions; unused ones are H or OH. Bridge positions count the residues as written; N and C are the ends. Side chains are listed from the residue outwards. Ends that are not written are not given here. * marks the point of attachment. C20 diacid = O=C(O)CCCCCCCCCCCCCCCCCCC(=O)*; γGlu = O=C(O)[C@H](CCC(=O)[*:2])N[*:1]; AEEA = NCCOCCOCC(=O)O

T1: rat calcitonin receptor (rat, UniProt P32214 25-516)
T1 construct: whole, on cells; Used as membranes prepared from the transfected cells; also called rCTR; rat calcitonin (a) receptor
T1 sequence (looked up): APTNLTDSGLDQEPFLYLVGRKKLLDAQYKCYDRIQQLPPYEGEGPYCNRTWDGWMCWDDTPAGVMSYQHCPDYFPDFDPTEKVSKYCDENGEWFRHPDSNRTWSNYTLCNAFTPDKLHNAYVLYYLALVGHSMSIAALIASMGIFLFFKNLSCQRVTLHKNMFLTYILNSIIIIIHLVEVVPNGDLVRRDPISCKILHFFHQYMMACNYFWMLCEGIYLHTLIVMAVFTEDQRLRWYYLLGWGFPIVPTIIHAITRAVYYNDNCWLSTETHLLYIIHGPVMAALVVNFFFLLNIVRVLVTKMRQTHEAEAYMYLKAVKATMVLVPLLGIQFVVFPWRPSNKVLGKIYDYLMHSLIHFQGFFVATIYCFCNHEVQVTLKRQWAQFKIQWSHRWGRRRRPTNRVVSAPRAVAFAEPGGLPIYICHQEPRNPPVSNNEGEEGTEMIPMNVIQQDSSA

T2: rat amylin receptor (rat calcitonin receptor + rat RAMP 3) (rat, UniProt P32214 25-516; Q9JJ73 23-147)
T2 construct: whole, on cells; Used as membranes prepared from the transfected cells; also called rAmylin-R; rat amylin 3(a) receptor
T2 sequence (looked up) 1: T1 sequence (looked up)
T2 sequence (looked up) 2: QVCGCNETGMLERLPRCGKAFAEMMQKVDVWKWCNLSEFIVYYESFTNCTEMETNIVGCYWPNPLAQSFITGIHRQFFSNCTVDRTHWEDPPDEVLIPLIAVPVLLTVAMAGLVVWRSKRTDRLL

T3: human calcitonin receptor (human, UniProt P30988 25-474)
T3 construct: whole, on cells; Used as membranes prepared from the transfected cells (Assay VII); also called hCTR; hCT
T3 sequence (looked up): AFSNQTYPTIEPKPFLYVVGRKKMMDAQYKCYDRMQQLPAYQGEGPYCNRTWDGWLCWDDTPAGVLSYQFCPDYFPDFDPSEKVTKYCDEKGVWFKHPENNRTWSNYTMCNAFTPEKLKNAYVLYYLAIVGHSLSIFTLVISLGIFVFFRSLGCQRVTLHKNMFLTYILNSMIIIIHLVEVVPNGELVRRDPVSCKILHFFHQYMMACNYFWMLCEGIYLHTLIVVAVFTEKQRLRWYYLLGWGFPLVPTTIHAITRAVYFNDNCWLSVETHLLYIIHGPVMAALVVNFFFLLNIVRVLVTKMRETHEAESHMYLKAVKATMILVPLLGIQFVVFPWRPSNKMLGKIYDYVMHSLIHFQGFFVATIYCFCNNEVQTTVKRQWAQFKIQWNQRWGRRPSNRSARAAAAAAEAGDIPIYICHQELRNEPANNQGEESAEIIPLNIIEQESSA

B1: N^ε1-[2-[2-[2-[[(4S)-4-carboxy-4-(19-carboxynonadecanoylamino)butanoyl]amino]ethoxy]ethoxy]acetyl]-[Arg17,Pro21,Pro27]-h-amylin (peptide)
peptide: K([AEEA-γGlu-C20 diacid])CNTATCATQRLANFLRHSSPNFGAIPSSTNVGSNTY-NH2
modifications: disulfide 2-7; N-terminus assumed
SMILES: CC[C@H](C)[C@H](NC(=O)[C@H](C)NC(=O)CNC(=O)[C@H](Cc1ccccc1)NC(=O)[C@H](CC(N)=O)NC(=O)[C@@H]1CCCN1C(=O)[C@H](CO)NC(=O)[C@H](CO)NC(=O)[C@H](Cc1c[nH]cn1)NC(=O)[C@H](CCCNC(=N)N)NC(=O)[C@H](CC(C)C)NC(=O)[C@H](Cc1ccccc1)NC(=O)[C@H](CC(N)=O)NC(=O)[C@H](C)NC(=O)[C@H](CC(C)C)NC(=O)[C@H](CCCNC(=N)N)NC(=O)[C@H](CCC(N)=O)NC(=O)[C@@H](NC(=O)[C@H](C)NC(=O)[C@@H]1CSSC[C@H](NC(=O)[C@@H](N)CCCCNC(=O)COCCOCCNC(=O)CC[C@H](NC(=O)CCCCCCCCCCCCCCCCCCC(=O)O)C(=O)O)C(=O)N[C@@H](CC(N)=O)C(=O)N[C@@H]([C@@H](C)O)C(=O)N[C@@H](C)C(=O)N[C@@H]([C@@H](C)O)C(=O)N1)[C@@H](C)O)C(=O)N1CCC[C@H]1C(=O)N[C@@H](CO)C(=O)N[C@@H](CO)C(=O)N[C@H](C(=O)N[C@@H](CC(N)=O)C(=O)N[C@H](C(=O)NCC(=O)N[C@@H](CO)C(=O)N[C@@H](CC(N)=O)C(=O)N[C@H](C(=O)N[C@@H](Cc1ccc(O)cc1)C(N)=O)[C@@H](C)O)C(C)C)[C@@H](C)O
notes: Derivative of human amylin; also called compound 41
B2: N^ε1-[(4S)-4-carboxy-4-[[(4S)-4-carboxy-4-(19-carboxynonadecanoylamino)butanoyl]amino]butanoyl]-[Asp14,Arg17,Pro21,Pro26,Asp35]-h-amylin (peptide)
peptide: K([γGlu-γGlu-C20 diacid])CNTATCATQRLADFLRHSSPNFGAPLSSTNVGSDTY-NH2
modifications: disulfide 2-7; N-terminus assumed
SMILES: CC(C)C[C@H](NC(=O)[C@H](CCCNC(=N)N)NC(=O)[C@H](CCC(N)=O)NC(=O)[C@@H](NC(=O)[C@H](C)NC(=O)[C@@H]1CSSC[C@H](NC(=O)[C@@H](N)CCCCNC(=O)CC[C@H](NC(=O)CC[C@H](NC(=O)CCCCCCCCCCCCCCCCCCC(=O)O)C(=O)O)C(=O)O)C(=O)N[C@@H](CC(N)=O)C(=O)N[C@@H]([C@@H](C)O)C(=O)N[C@@H](C)C(=O)N[C@@H]([C@@H](C)O)C(=O)N1)[C@@H](C)O)C(=O)N[C@@H](C)C(=O)N[C@@H](CC(=O)O)C(=O)N[C@@H](Cc1ccccc1)C(=O)N[C@@H](CC(C)C)C(=O)N[C@@H](CCCNC(=N)N)C(=O)N[C@@H](Cc1c[nH]cn1)C(=O)N[C@@H](CO)C(=O)N[C@@H](CO)C(=O)N1CCC[C@H]1C(=O)N[C@@H](CC(N)=O)C(=O)N[C@@H](Cc1ccccc1)C(=O)NCC(=O)N[C@@H](C)C(=O)N1CCC[C@H]1C(=O)N[C@@H](CC(C)C)C(=O)N[C@@H](CO)C(=O)N[C@@H](CO)C(=O)N[C@H](C(=O)N[C@@H](CC(N)=O)C(=O)N[C@H](C(=O)NCC(=O)N[C@@H](CO)C(=O)N[C@@H](CC(=O)O)C(=O)N[C@H](C(=O)N[C@@H](Cc1ccc(O)cc1)C(N)=O)[C@@H](C)O)C(C)C)[C@@H](C)O
notes: Derivative of human amylin; also called compound 1
B3: N^ε1-[(4S)-4-carboxy-4-(19-carboxynonadecanoylamino)butanoyl]-[Arg17,Pro21,Pro27,Glu35]-h-amylin (peptide)
peptide: K([γGlu-C20 diacid])CNTATCATQRLANFLRHSSPNFGAIPSSTNVGSETY-NH2
modifications: disulfide 2-7; N-terminus assumed
SMILES: CC[C@H](C)[C@H](NC(=O)[C@H](C)NC(=O)CNC(=O)[C@H](Cc1ccccc1)NC(=O)[C@H](CC(N)=O)NC(=O)[C@@H]1CCCN1C(=O)[C@H](CO)NC(=O)[C@H](CO)NC(=O)[C@H](Cc1c[nH]cn1)NC(=O)[C@H](CCCNC(=N)N)NC(=O)[C@H](CC(C)C)NC(=O)[C@H](Cc1ccccc1)NC(=O)[C@H](CC(N)=O)NC(=O)[C@H](C)NC(=O)[C@H](CC(C)C)NC(=O)[C@H](CCCNC(=N)N)NC(=O)[C@H](CCC(N)=O)NC(=O)[C@@H](NC(=O)[C@H](C)NC(=O)[C@@H]1CSSC[C@H](NC(=O)[C@@H](N)CCCCNC(=O)CC[C@H](NC(=O)CCCCCCCCCCCCCCCCCCC(=O)O)C(=O)O)C(=O)N[C@@H](CC(N)=O)C(=O)N[C@@H]([C@@H](C)O)C(=O)N[C@@H](C)C(=O)N[C@@H]([C@@H](C)O)C(=O)N1)[C@@H](C)O)C(=O)N1CCC[C@H]1C(=O)N[C@@H](CO)C(=O)N[C@@H](CO)C(=O)N[C@H](C(=O)N[C@@H](CC(N)=O)C(=O)N[C@H](C(=O)NCC(=O)N[C@@H](CO)C(=O)N[C@@H](CCC(=O)O)C(=O)N[C@H](C(=O)N[C@@H](Cc1ccc(O)cc1)C(N)=O)[C@@H](C)O)C(C)C)[C@@H](C)O
notes: Derivative of human amylin; also called compound 27
B4: N^ε1-[(4S)-4-carboxy-4-(19-carboxynonadecanoylamino)butanoyl]-[Arg17,Pro21,Pro27,Lys35]-h-amylin (peptide)
peptide: K([γGlu-C20 diacid])CNTATCATQRLANFLRHSSPNFGAIPSSTNVGSKTY-NH2
modifications: disulfide 2-7; N-terminus assumed
SMILES: CC[C@H](C)[C@H](NC(=O)[C@H](C)NC(=O)CNC(=O)[C@H](Cc1ccccc1)NC(=O)[C@H](CC(N)=O)NC(=O)[C@@H]1CCCN1C(=O)[C@H](CO)NC(=O)[C@H](CO)NC(=O)[C@H](Cc1c[nH]cn1)NC(=O)[C@H](CCCNC(=N)N)NC(=O)[C@H](CC(C)C)NC(=O)[C@H](Cc1ccccc1)NC(=O)[C@H](CC(N)=O)NC(=O)[C@H](C)NC(=O)[C@H](CC(C)C)NC(=O)[C@H](CCCNC(=N)N)NC(=O)[C@H](CCC(N)=O)NC(=O)[C@@H](NC(=O)[C@H](C)NC(=O)[C@@H]1CSSC[C@H](NC(=O)[C@@H](N)CCCCNC(=O)CC[C@H](NC(=O)CCCCCCCCCCCCCCCCCCC(=O)O)C(=O)O)C(=O)N[C@@H](CC(N)=O)C(=O)N[C@@H]([C@@H](C)O)C(=O)N[C@@H](C)C(=O)N[C@@H]([C@@H](C)O)C(=O)N1)[C@@H](C)O)C(=O)N1CCC[C@H]1C(=O)N[C@@H](CO)C(=O)N[C@@H](CO)C(=O)N[C@H](C(=O)N[C@@H](CC(N)=O)C(=O)N[C@H](C(=O)NCC(=O)N[C@@H](CO)C(=O)N[C@@H](CCCCN)C(=O)N[C@H](C(=O)N[C@@H](Cc1ccc(O)cc1)C(N)=O)[C@@H](C)O)C(C)C)[C@@H](C)O
notes: Derivative of human amylin; also called compound 35

Each binder was assayed against T1, rat calcitonin receptor (assay: ratio IC50 rat calcitonin receptor / IC50 rat amylin receptor (Assays VIII and VI)).
In the case of B1, the “Ratio rCT/rAmylin binding” value is reported as 54.
B2 was tested, and the “Ratio rCT/rAmylin binding” value was 104.
With B3 the “Ratio rCT/rAmylin binding” value was 147.
With B4 the “Ratio rCT/rAmylin binding” value was 65.1.

Each binder was assayed against T2, rat amylin receptor (rat calcitonin …) (assay: SPA competition with 125I-rat amylin, membranes of BHK cells with rat calcitonin receptor + rat RAMP3 (Assay VI)).
With B1 the IC50 was 1.37 nM.
B2 was tested, and the IC50 was 1.3 nM.
B3 gave an IC50 of 0.614 nM.
B4 gave an IC50 of 0.948 nM.

Each binder was assayed against T1, rat calcitonin receptor (assay: SPA competition with 125I-calcitonin, membranes of BHK cells with rat calcitonin receptor (Assay VIII)).
With B1 the IC50 was 74.1 nM.
B2 was tested, and the IC50 was 135 nM.
Binder B3 has an IC50 of 90.2 nM.
Binder B4 has an IC50 of 61.7 nM.

The binders below were run against T3, human calcitonin receptor (assay: ratio IC50 human calcitonin receptor / IC50 human amylin receptor (Assays VII and V)).
Summary of the method: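 Scintillation proximity competition binding on cell membranes at 35 ng/μL with SPA beads, in 50 mM Hepes pH 7.4, 1 mM CaCl2, 5 mM MgCl₂, 0.1% OA, 0.02% Tween20. Incubated 120 min at 25° C with shaking. IC₅₀ from one-site competition fit.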
In the case of B1, the “Ratio hCT/hAmylin binding” value is reported as 49.9.
With B2 the “Ratio hCT/hAmylin binding” value was 27.6.
In the case of B3, the “Ratio hCT/hAmylin binding” value is reported as 41.3.
In the case of B4, the “Ratio hCT/hAmylin binding” value is reported as 50.3.
